Results published in patent publication US20040171537A1 (HOSPITAL FOR SICK CHILDREN, published 2004).

B1: GST fusion of human MARS-v (MARS short isoform, splice variant) (other, not shown: a dimerising Fc or GST; large carriers; small tags and cut ends)
chain: MGSLPSRRKSLPSPSLSSSVQGQGPVTMEAERSKATAVALGSFPAGGPAELSLRLGEPLTIVSEDGDWWTVLSEVSGREYNIPSVHVAKVSHGWLYEGLSREKAEELLLLPGNPGGAFLIRESQTRRGSYSLSVRLSRPASWDRIRHYRIHCLDNGWLYISPRLTFPSLQALVDHYSEGWPAPWQGYTPTCDCAEDTTQLERAGQLPPVF
modifications: N-terminal GST fusion from pGEX-4T1; GST letters are not given and are left out
notes: The full-length MARS-v coding region (210 amino acids) was fused in-frame to GST; also called MARS-variant; MARS splice variant
B2: GST-MARS delta-C (deletion of the carboxy-terminal 70 amino acids) (other, not shown: a dimerising Fc or GST; large carriers; small tags and cut ends)
chain: MGSLSSRGKTSSPSPSSSGPDQEPVSMQPERHKVTAVALGSFPAGEQARLSLRLGEPLTIISEDGDWWTVQSEVSGREYHMPSVYVAKVAHGWLYEGLSREKAEELLLLPGNPGGAFLIRESQTRRGCYSLSVRLSRPASWDRIRHYRIQRLDNGWLYISPRLTFPSLHALVEHYSELADGICCPLREP
modifications: N-terminal GST fusion from pGEX-4T1; GST letters are not given and are left out
notes: Residues 1-189 are worked out from the 259-residue entry; also called MARS AC mutant; C-terminal deletion mutant of MARS

Assays:
[1] = target: T1, c-Cbl (endogenous, Jurkat T-cell lysate) (human, UniProt P22681 1-906, tyrosine phosphorylated after anti-CD3 stimulation (sites not given)); test: GST pull-down from unstimulated or anti-CD3 stimulated Jurkat lysates, anti-c-Cbl immunoblot
T1 construct: also called 120 kDa phosphoprotein
Experimental: Full-length MARS and MARS-v coding regions were fused in-frame to glutathione-S-transferase, in PGEX4T1. Recombinant GST fusion proteins were expressed in bacteria and purified on glutathione sepharose (GS) (Pharmacia). Jurkat T-cells (20×10⁶) were either left unstimulated (−) or stimulated with anti-CD3 (+); (anti-human CD3ε, clone UCGT1, Pharmingen) for 2 minutes. Cells were lysed in 1% NP-40 lysis buffer containing 1 mM sodium orthovanadate and complete protease inhibitors (Roche). Cell lysates were incubated with 4 μg of GS bound GST fusion proteins for 90 minutes at 4° C. and washed 4 times for 10 minutes with 0.1% NP-40 lysis buffer. Bound proteins were eluted by boiling in 2×SDS sample buffer and were resolved by SDS-PAGE on 10% polyacrylamide gels. Proteins were subsequently transferred to PVDF membrane (NEN) and blotted with anti-phosphotyrosine antibody (clone 4G10, UBI; top panel, FIG. 13). Membranes were stripped and reprobed with anti-c-Cbl antibody (Santa Cruz; middle panel, FIG. 13), and subsequently stained with Coomassie blue dye to check for equal loading of the respective fusions (bottom panel, FIG. 13).

[2] = target: T1, c-Cbl (endogenous, Jurkat T-cell lysate); test: GST pull-down from Jurkat T-cell lysates, anti-c-Cbl immunoblot

Row | Binder | binding result [1] | binding result [2]
1 | B1 | no binding (tested: 4 µg of GS bound GST fusion proteins) | 
2 | B2 |  | no binding
